Experimental findings from publication PMC3032050, “LPS ligand and culture additives improve production of monomeric MD-1 and 2 in Pichia pastoris by decreasing aggregation and intermolecular disulfide bonding” (Protein Expression and Purification, 2011) are described below.

The target of data set [1] is T1, human MD-2 (myeloid differentiation factor 2) (human), Q9Y6Y9.
T1 chain: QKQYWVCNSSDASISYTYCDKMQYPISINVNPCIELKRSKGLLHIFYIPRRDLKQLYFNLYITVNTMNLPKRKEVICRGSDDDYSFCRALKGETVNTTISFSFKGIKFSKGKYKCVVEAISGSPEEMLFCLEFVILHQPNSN
Nature of the data set: SEC; nickel-purified protein on HiLoad 16/60 Superdex 200 in 50 mM sodium acetate, pH 5.0; without additive, or with the anti-aggregation additive (0.2 M MgSO4 for hMD-2) in culture medium and buffers. Conditions: remark: other sources report otherwise.

Data set [2] deals with the molecule itself. Nature of the data set: non-reducing SDS-PAGE with anti-His Western blot; culture supernatants of GS115 and KM71H cultures, induced without or with culture additives. (Immunoblotting shows a protein as a band on a membrane.)

B1: human MD-2 (myeloid differentiation factor 2), Q9Y6Y9 19-160 (natural protein)
chain: QKQYWVCNSSDASISYTYCDKMQYPISINVNPCIELKRSKGLLHIFYIPRRDLKQLYFNLYITVNTMNLPKRKEVICRGSDDDYSFCRALKGETVNTTISFSFKGIKFSKGKYKCVVEAISGSPEEMLFCLEFVILHQPNSN
In data set [1], B1 had a percent monomeric (with 0.2 M MgSO4) of 15%.

B2: human MD-1 (myeloid differentiation factor 1) (natural protein, UniProt O95711 21-162, looked up)
chain: GGGGKAWPTHVVCSDSGLEVLYQSCDPLQDFGFSVEKCSKQLKSNINIRFGIILREDIKELFLDLALMSQGSSVLNFSYPICEAALPKFSFCGRRKGEQIYYAGPVNNPEFTIPQGEYQVLLELYTEKRSTVACANATIMCS
notes: A TEV cleavage site lies between the His6-tag and the protein; Secreted by the S. cerevisiae alpha factor prepro peptide; Glycoprotein; also called hMD-1; source: Pichia pastoris GS115 or KM71H (pPIC9K), secreted; not shown: His6, N-terminal, kept
Regarding B2, the binding result in data set [2] is “binds”.
